Here are results for nine substances from patent publication EP1086117B1.

Some results are limits rather than exact numbers.

The target in test [1] is human motilin receptor spliced form A (MTL-R1A) (human). The test can be described thus: direct radioligand binding on cell membranes of MTL-R1A transfected cells.
For test [2] the target is unchanged. As to the kind of experiment: cell-based or functional assay.
Test [3] has the same target. As to the kind of experiment: displacement of [125I] human motilin from crude membranes of MTL-R1A transfected HEK-293/aeq17 cells. A general note: Loss of bound radioactivity is the signal in a displacement assay; it reports binding, not function.

A word on the Kd: it is the free concentration of one partner at which half of the binding sites on the other are occupied at equilibrium, for simple one-to-one binding. Read a high Kd as a looser complex. Turning to “[125I]-Tyr7-human motilin (from UniProt P12872 26-47) (peptide)”, in test [1], the Bmax (fmol/mg protein) was found to be 240 and the Kd came to 0.1 nM.

What is called IC50 is the midpoint of a concentration-inhibition curve. The low end stands for greater potency in that assay, the high end for weaker potency in that assay. In test [2], “1-19 MTL (from UniProt P12872 26-44) (peptide)” had an Aequorin Assay (EC50 nM) of 4.1 nM. The substance further yielded an IC50 in test [3] of 0.3 nM.

Turning to “human motilin (MTL) (from UniProt P12872 26-47) (peptide)”, in test [2], the Aequorin Assay (EC50 nM) was 2.1 nM and the bioluminescent response, aequorin assay, 100 nM peptide (fold over background) is above 4. In test [3], this substance had an IC50 of 0.5 nM.

In test [2], “canine motilin (from UniProt P19863 1-22) (peptide)” showed an Aequorin Assay (EC50 nM) of 4.4 nM. In addition, the IC50 in test [3] was 0.2 nM.

Take “1-12 MTL (from UniProt P12872 26-37) (peptide)”: the Aequorin Assay (EC50 nM) in test [2] came to 72 nM. Further, the IC50 in test [3] came to 14 nM.

Substance “1-13 MTL (from UniProt P12872 26-38) (peptide)” showed an Aequorin Assay (EC50 nM) in test [2] of 3.8 nM. Besides, in test [3], the IC50 came to 0.9 nM.

“Leu 13 MTL (from UniProt P12872 26-115) (peptide)”: the Aequorin Assay (EC50 nM) in test [2] was 3.9 nM. In addition, the IC50 in test [3] was found to be 0.2 nM.

Turning to “10-22 MTL (from UniProt P12872 35-47) (peptide)”, the Aequorin Assay (EC50 nM) in test [2] was above 10000 nM. For the same substance, the IC50 in test [3] was determined as 1100 nM.

For the substance “1-11 MTL (from UniProt P12872 26-36) (peptide)”, the Aequorin Assay (EC50 nM) in test [2] is 138 nM. In addition, in test [3], the IC50 turned out to be 127 nM.
